Blank lines part the entries; values can stand above or below the molecule they belong to.
Legend:
[1] = tested on: GFP-14-3-3β and its binding proteins; assay: GFP-14-3-3β co-IP with LC-MS/MS label-free quantification, untreated versus PP1c-treated; parameters: species or system human; details: PP1 vs untreated; LFQ intensities; 3 replicates each
GFP-14-3-3β = GFP-14-3-3β co-IP with LC-MS/MS, untreated GFP-14-3-3β versus GFP control (14-3-3 interactome); format: binding, human; details: untreated vs GFP; LFQ intensities; 3 replicates each

Difference (log2), PP1 vs untreated [1]: 0.5643 log2
B1: COPA (protein, UniProt P53621 1-1224, looked up)
Coatomer subunit alpha: MLTKFETKSARVKGLSFHPKRPWILTSLHNGVIQLWDYRMCTLIDKFDEHDGPVRGIDFHKQQPLFVSGGDDYKIKVWNYKLRRCLFTLLGHLDYIRTTFFHHEYPWILSASDDQTIRVWNWQSRTCVCVLTGHNHYVMCAQFHPTEDLVVSASLDQTVRVWDISGLRKKNLSPGAVESDVRGITGVDLFGTTDAVVKHVLEGHDRGVNWAAFHPTMPLIVSGADDRQVKIWRMNESKAWEVDTCRGHYNNVSCAVFHPRQELILSNSEDKSIRVWDMSKRTGVQTFRRDHDRFWVLAAHPNLNLFAAGHDGGMIVFKLERERPAYAVHGNMLHYVKDRFLRQLDFNSSKDVAVMQLRSGSKFPVFNMSYNPAENAVLLCTRASNLENSTYDLYTIPKDADSQNPDAPEGKRSSGLTAVWVARNRFAVLDRMHSLLIKNLKNEITKKVQVPNCDEIFYAGTGNLLLRDADSITLFDVQQKRTLASVKISKVKYVIWSADMSHVALLAKHAIVICNRKLDALCNIHENIRVKSGAWDESGVFIYTTSNHIKYAVTTGDHGIIRTLDLPIYVTRVKGNNVYCLDRECRPRVLTIDPTEFKFKLALINRKYDEVLHMVRNAKLVGQSIIAYLQKKGYPEVALHFVKDEKTRFSLALECGNIEIALEAAKALDDKNCWEKLGEVALLQGNHQIVEMCYQRTKNFDKLSFLYLITGNLEKLRKMMKIAEIRKDMSGHYQNALYLGDVSERVRILKNCGQKSLAYLTAATHGLDEEAESLKETFDPEKETIPDIDPNAKLLQPPAPIMPLDTNWPLLTVSKGFFEGTIASKGKGGALAADIDIDTVGTEGWGEDAELQLDEDGFVEATEGLGDDALGKGQEEGGGWDVEEDLELPPELDISPGAAGGAEDGFFVPPTKGTSPTQIWCNNSQLPVDHILAGSFETAMRLLHDQVGVIQFGPYKQLFLQTYARGRTTYQALPCLPSMYGYPNRNWKDAGLKNGVPAVGLKLNDLIQRLQLCYQLTTVGKFEEAVEKFRSILLSVPLLVVDNKQEIAEAQQLITICREYIVGLSVETERKKLPKETLEQQKRICEMAAYFTHSNLQPVHMILVLRTALNLFFKLKNFKTAATFARRLLELGPKPEVAQQTRKILSACEKNPTDAYQLNYDMHNPFDICAASYRPIYRGKPVEKCPLSGACYSPEFKGQICRVTTVTEIGKDVIGLRISPLQFR
Difference (log2), untreated vs GFP (GFP-14-3-3β): -0.09761 log2

Difference (log2), PP1 vs untreated [1]: 0.5838 log2
B2: MYO1B (protein, UniProt O43795 1-1136, looked up)
Unconventional myosin-Ib: MAKMEVKTSLLDNMIGVGDMVLLEPLNEETFINNLKKRFDHSEIYTYIGSVVISVNPYRSLPIYSPEKVEEYRNRNFYELSPHIFALSDEAYRSLRDQDKDQCILITGESGAGKTEASKLVMSYVAAVCGKGAEVNQVKEQLLQSNPVLEAFGNAKTVRNDNSSRFGKYMDIEFDFKGDPLGGVISNYLLEKSRVVKQPRGERNFHVFYQLLSGASEELLNKLKLERDFSRYNYLSLDSAKVNGVDDAANFRTVRNAMQIVGFMDHEAESVLAVVAAVLKLGNIEFKPESRVNGLDESKIKDKNELKEICELTGIDQSVLERAFSFRTVEAKQEKVSTTLNVAQAYYARDALAKNLYSRLFSWLVNRINESIKAQTKVRKKVMGVLDIYGFEIFEDNSFEQFIINYCNEKLQQIFIELTLKEEQEEYIREDIEWTHIDYFNNAIICDLIENNTNGILAMLDEECLRPGTVTDETFLEKLNQVCATHQHFESRMSKCSRFLNDTSLPHSCFRIQHYAGKVLYQVEGFVDKNNDLLYRDLSQAMWKASHALIKSLFPEGNPAKINLKRPPTAGSQFKASVATLMKNLQTKNPNYIRCIKPNDKKAAHIFNEALVCHQIRYLGLLENVRVRRAGYAFRQAYEPCLERYKMLCKQTWPHWKGPARSGVEVLFNELEIPVEEYSFGRSKIFIRNPRTLFKLEDLRKQRLEDLATLIQKIYRGWKCRTHFLLMKKSQIVIAAWYRRYAQQKRYQQTKSSALVIQSYIRGWKARKILRELKHQKRCKEAVTTIAAYWHGTQARRELRRLKEEARNKHAIAVIWAYWLGSKARRELKRLKEEARRKHAVAVIWAYWLGLKVRREYRKFFRANAGKKIYEFTLQRIVQKYFLEMKNKMPSLSPIDKNWPSRPYLFLDSTHKELKRIFHLWRCKKYRDQFTDQQKLIYEEKLEASELFKDKKALYPSSVGQPFQGAYLEINKNPKYKKLKDAIEEKIIIAEVVNKINRANGKSTSRIFLLTNNNLLLADQKSGQIKSEVPLVDVTKVSMSSQNDGFFAVHLKEGSEAASKGDFLFSSDHLIEMATKLYRTTLSQTKQKLNIEISDEFLVQFRQDKVCVKFIQGNQKNGSVPTCKRKNNRLLEVAVP
Difference (log2), untreated vs GFP (GFP-14-3-3β): -1.083 log2

Difference (log2), PP1 vs untreated [1]: 0.5407 log2
B3: RCN1 (protein, UniProt Q15293 30-331, looked up)
Reticulocalbin-1: KPTVRKERVVRPDSELGERPPEDNQSFQYDHEAFLGKEDSKTFDQLTPDESKERLGKIVDRIDNDGDGFVTTEELKTWIKRVQKRYIFDNVAKVWKDYDRDKDDKISWEEYKQATYGYYLGNPAEFHDSSDHHTFKKMLPRDERRFKAADLNGDLTATREEFTAFLHPEEFEHMKEIVVLETLEDIDKNGDGFVDQDEYIADMFSHEENGPEPDWVLSEREQFNEFRDLNKDGKLDKDEIRHWILPQDYDHAQAEARHLVYESDKNKDEKLTKEEILENWNMFVGSQATNYGEDLTKNHDEL
Difference (log2), untreated vs GFP (GFP-14-3-3β): -0.5528 log2

Difference (log2), PP1 vs untreated [1]: 0.5459 log2
B4: DHX29 (protein, UniProt Q7Z478 1-1369, looked up)
ATP-dependent RNA helicase …: MGGKNKKHKAPAAAVVRAAVSASRAKSAEAGIAGEAQSKKPVSRPATAAAAAAGSREPRVKQGPKIYSFNSTNDSSGPANLDKSILKVVINNKLEQRIIGVINEHKKQNNDKGMISGRLTAKKLQDLYMALQAFSFKTKDIEDAMTNTLLYGGDLHSALDWLCLNLSDDALPEGFSQEFEEQQPKSRPKFQSPQIQATISPPLQPKTKTYEEDPKSKPKKEEKNMEVNMKEWILRYAEQQNEEEKNENSKSLEEEEKFDPNERYLHLAAKLLDAKEQAATFKLEKNKQGQKEAQEKIRKFQREMETLEDHPVFNPAMKISHQQNERKKPPVATEGESALNFNLFEKSAAATEEEKDKKKEPHDVRNFDYTARSWTGKSPKQFLIDWVRKNLPKSPNPSFEKVPVGRYWKCRVRVIKSEDDVLVVCPTILTEDGMQAQHLGATLALYRLVKGQSVHQLLPPTYRDVWLEWSDAEKKREELNKMETNKPRDLFIAKLLNKLKQQQQQQQQHSENKRENSEDPEESWENLVSDEDFSALSLESANVEDLEPVRNLFRKLQSTPKYQKLLKERQQLPVFKHRDSIVETLKRHRVVVVAGETGSGKSTQVPHFLLEDLLLNEWEASKCNIVCTQPRRISAVSLANRVCDELGCENGPGGRNSLCGYQIRMESRACESTRLLYCTTGVLLRKLQEDGLLSNVSHVIVDEVHERSVQSDFLLIILKEILQKRSDLHLILMSATVDSEKFSTYFTHCPILRISGRSYPVEVFHLEDIIEETGFVLEKDSEYCQKFLEEEEEVTINVTSKAGGIKKYQEYIPVQTGAHADLNPFYQKYSSRTQHAILYMNPHKINLDLILELLAYLDKSPQFRNIEGAVLIFLPGLAHIQQLYDLLSNDRRFYSERYKVIALHSILSTQDQAAAFTLPPPGVRKIVLATNIAETGITIPDVVFVIDTGRTKENKYHESSQMSSLVETFVSKASALQRQGRAGRVRDGFCFRMYTRERFEGFMDYSVPEILRVPLEELCLHIMKCNLGSPEDFLSKALDPPQLQVISNAMNLLRKIGACELNEPKLTPLGQHLAALPVNVKIGKMLIFGAIFGCLDPVATLAAVMTEKSPFTTPIGRKDEADLAKSALAMADSDHLTIYNAYLGWKKARQEGGYRSEITYCRRNFLNRTSLLTLEDVKQELIKLVKAAGFSSSTTSTSWEGNRASQTLSFQEIALLKAVLVAGLYDNVGKIIYTKSVDVTEKLACIVETAQGKAQVHPSSVNRDLQTHGWLLYQEKIRYARVYLRETTLITPFPVLLFGGDIEVQHRERLLSIDGWIYFQAPVKIAVIFKQLRVLIDSVLRKKLENPKMSLENDKILQIITELIKTENN
Difference (log2), untreated vs GFP (GFP-14-3-3β): 1.239 log2

Difference (log2), PP1 vs untreated [1]: 0.5387 log2
B5: HNRNPD (protein, UniProt Q14103 2-355, looked up)
Heterogeneous nuclear …: SEEQFGGDGAAAAATAAVGGSAGEQEGAMVAATQGAAAAAGSGAGTGGGTASGGTEGGSAESEGAKIDASKNEEDEGHSNSSPRHSEAATAQREEWKMFIGGLSWDTTKKDLKDYFSKFGEVVDCTLKLDPITGRSRGFGFVLFKESESVDKVMDQKEHKLNGKVIDPKRAKAMKTKEPVKKIFVGGLSPDTPEEKIREYFGGFGEVESIELPMDNKTNKRRGFCFITFKEEEPVKKIMEKKYHNVGLSKCEIKVAMSKEQYQQQQQWGSRGGFAGRARGRGGGPSQNWNQGYSNYWNQGYGNYGYNSQGYGGYGGYDYTGYNNYYGYGDYSNQQSGYGKVSRRGGHQNSYKPY
Difference (log2), untreated vs GFP (GFP-14-3-3β): 0.1919 log2

Difference (log2), PP1 vs untreated [1]: 0.5451 log2
B6: SLC2A1 (protein, UniProt P11166 1-492, looked up)
Solute carrier family 2, …: MEPSSKKLTGRLMLAVGGAVLGSLQFGYNTGVINAPQKVIEEFYNQTWVHRYGESILPTTLTTLWSLSVAIFSVGGMIGSFSVGLFVNRFGRRNSMLMMNLLAFVSAVLMGFSKLGKSFEMLILGRFIIGVYCGLTTGFVPMYVGEVSPTALRGALGTLHQLGIVVGILIAQVFGLDSIMGNKDLWPLLLSIIFIPALLQCIVLPFCPESPRFLLINRNEENRAKSVLKKLRGTADVTHDLQEMKEESRQMMREKKVTILELFRSPAYRQPILIAVVLQLSQQLSGINAVFYYSTSIFEKAGVQQPVYATIGSGIVNTAFTVVSLFVVERAGRRTLHLIGLAGMAGCAILMTIALALLEQLPWMSYLSIVAIFGFVAFFEVGPGPIPWFIVAELFSQGPRPAAIAVAGFSNWTSNFIVGMCFQYVEQLCGPYVFIIFTVLLVLFFIFTYFKVPETKGRTFDEIASGFRQGGASQSDKTPEELFHPLGADSQV
Difference (log2), untreated vs GFP (GFP-14-3-3β): -0.3989 log2

Difference (log2), PP1 vs untreated [1]: 0.5791 log2
B7: OSBPL8 (protein, UniProt Q9BZF1 1-889, looked up)
Oxysterol-binding …: MEGGLADGEPDRTSLLGDSKDVLGPSTVVANSDESQLLTPGKMSQRQGKEAYPTPTKDLHQPSLSPASPHSQGFERGKEDISQNKDESSLSMSKSKSESKLYNGSEKDSSTSSKLTKKESLKVQKKNYREEKKRATKELLSTITDPSVIVMADWLKIRGTLKSWTKLWCVLKPGVLLIYKTQKNGQWVGTVLLNACEIIERPSKKDGFCFKLFHPLEQSIWAVKGPKGEAVGSITQPLPSSYLIIRATSESDGRCWMDALELALKCSSLLKRTMIREGKEHDLSVSSDSTHVTFYGLLRANNLHSGDNFQLNDSEIERQHFKDQDMYSDKSDKENDQEHDESDNEVMGKSEESDTDTSERQDDSYIEPEPVEPLKETTYTEQSHEELGEAGEASQTETVSEENKSLIWTLLKQVRPGMDLSKVVLPTFILEPRSFLDKLSDYYYHADFLSEAALEENPYFRLKKVVKWYLSGFYKKPKGLKKPYNPILGETFRCLWIHPRTNSKTFYIAEQVSHHPPISAFYVSNRKDGFCLSGSILAKSKFYGNSLSAILEGEARLTFLNRGEDYVMTMPYAHCKGILYGTMTLELGGTVNITCQKTGYSAILEFKLKPFLGSSDCVNQISGKLKLGKEVLATLEGHWDSEVFITDKKTDNSEVFWNPTPDIKQWRLIRHTVKFEEQGDFESEKLWQRVTRAINAKDQTEATQEKYVLEEAQRQAARDRKTKNEEWSCKLFELDPLTGEWHYKFADTRPWDPLNDMIQFEKDGVIQTKVKHRTPMVSVPKMKHKPTRQQKKVAKGYSSPEPDIQDSSGSEAQSVKPSTRRKKGIELGDIQSSIESIKQTQEEIKRNIMALRNHLVSSTPATDYFLQQKDYFIIFLLILLQVIINFMFK
Difference (log2), untreated vs GFP (GFP-14-3-3β): 0.9951 log2

Source: publication PMC7367873, “Dissecting the sequence determinants for dephosphorylation by the catalytic subunits of phosphatases PP1 and PP2A” (Nature Communications, 2020)
